Molecular target: GD03-S1(318-510)-C9 protein (SARS-CoV GD03 (GD03T0013), UniProt P59594 318-510)
Assay: ELISA, serial dilutions of coated S1-(318-510)-C9 protein, 0.5 ug/ml IgG1

B1: 11A IgG1 (antibody, V domains shown)
VH: EVQLVQSGAEVKKPGESLKISCKGSGYSFTSYWIGWVRQMPGKGLEWMGIINPDNSDTRFSPSLQGQVTISVDKSINTVYLQWGSLKASDTAMYYCARQGDYSGPSINYWGQGTLVTVSS
VL: QSVLTQPASVSGSPGQSITISCTGTSSDVGGYNYVSWYQQHPGKAPKLMIYDVSKRPSGIPERFSGSNSGNTATLTISGTQAMDEADYYCQAWDSNTYVFGTGTKVTVLV
binding result: binds

Reference: patent WO2007044695A2 (dated 2007)
